Measured values reported in PMC3267895.
Where two headings read alike, the source gives them in different places.

Assays:
[1] = target: T1, NPH-II (vaccinia virus, UniProt P12927 1-676); assay: sucrose gradient centrifugation
[2] = target: T1, NPH-II; assay: smFRET
[3] = target: T1, NPH-II; assay: smFRET; remark: listed apart in the source
[4] = target: T1, NPH-II; assay: smFRET; remark: listed apart in the source
[5] = target: T1, NPH-II; assay: sucrose gradient centrifugation; remark: listed apart in the source
[6] = target: T1, NPH-II; assay: sucrose gradient centrifugation; remark: listed apart in the source

CAGCAUCAAUGACAUCAGCAUCAA (ssRNA) [single-stranded RNA 24 nt (overhang)]
binding result [1]: binds

B1: smFRET bipartite RNA with two extra 3' U on complementary strand (dsRNA)
RNA 1: AGCACCGUAAAGACGCAGCCAGCAUCAAUGACAUCAGCAUCAA
RNA 2: GCUGCGUCUUUACGGUGCUUU
modifications: 3' biotin on strand 2
Kd [2]: 20.8 ± 7.5 nM | Kd [3]: < 0.01 nM | Kd [4]: 0.91 ± 0.12 nM

B2: bipartite RNA, 19 bp duplex with 24 nt 3' overhang (dsRNA)
RNA 1: AGCACCGUAAAGACGCAGCCAGCAUCAAUGACAUCAGCAUCAA
RNA 2: GCUGCGUCUUUACGGUGCU
binding result [5]: binds

B3: blunt-end duplex RNA 19 bp (dsRNA)
RNA 1: AGCACCGUAAAGACGCAGC
RNA 2: GCUGCGUCUUUACGGUGCU
binding result [6]: binds
